Assay results: the DeepSol protein solubility set

assay: soluble on expression in E. coli; label from the status in PepcDB or PDB records

Row | Sequence | soluble on expression in E. coli
1 | MGSDKIHHHHHHMEVIFKRPKALSDREFTYCPGCHHGIIHRLIAEVIDELDIQEKTIMVAPVGCSVFAYEFFDVDGTVAPHGRALAVATGIKRALPDMIVFTYQGDGDLAAIGIAETIHAANRGEKLTTIFVNNAVYGMTGGQMAPTTLLGQKTTTTPYGRTAANDGYPLHVSEALSTIDGVAYLERTTVSTTKDILNTKKAIKKAFLAQIKGLGFGMVEVLSTCPTNWGMSPVEAQNWLLENMVKEFPPKVFVDKVGD | not soluble
2 | MGSDKIHHHHHHMEVIRLDKVSLWRRTQEEFSYDLKKTLLSLIEGKYRKPAKKLVLDNVDLVVEKGDKIGIIGANGSGKSTLLKIISGILQPTTGTVRVRGQVAPLIELGAGFDAEISVMDNILLYGVLLGFSRAEMKERANSILEFAELQDYALVPVKGLSSGMVARLGFSIATDVQPNILILDEVLSVGDENFKNKCKQRIDNFWNGDATVLVVSHDLQFVKQYCNQLVWLSHGKIEFIGDAGEAIQNYLSTLTST | not soluble
3 | MGSDKIHHHHHHMFDKQEFVSKLVTEEKAKIVLLVMDGLGDIPVNGKTPLQAANTPNLDNLAKESDLGQTIPVLPGITPGSGPGHLSLFGYDPIKYQIGRGILEALGIGVEVGEKDVVARANFATWDGKVVLDRRAGRPATEESAKVVQLLSEKIKKIEDVEITFYPGKEHRFVVKFTGEGLGDKVTDADPQKEGHPMVWAEGLDEPSKKTARIVNELIKKIAEVLKDNPKINFALIRGFSKYPDLPKFPQVYKMKAGAIATYPMYRGLAKLVGMEIIETGQTVADEIKTLKEKWNDYDFFYVHVKKTDSYGEDGKFEEKVKVIEEVDAIIPEIVSLNPDVLVITGDHSTPVPLKAHSWHPVPLLIWSKYTRRGLSQAFNEFECARGTLGTIHASDVMTLALAYAGKLEKFGA | not soluble
4 | MGSDKIHHHHHHMFDLNDLFYFVQVVECRGFAPASRKLGIPKSKLSRRIAGLEERLGVSLIHRSTRKFAVTESGRDYYGHCVAMLVEADAAEEAIQRSKSEPQGKVVISCPPAMAAMGINEAIAGFMAAHPKVQVHIESTNRRVDPLIENIDIALRVRFPPLEDDGLVVKTLGHSAQRLVAHPDLAALLPANASFEALARLPSLDVTSSTPEHRWLLENGPGHYVEVRHAPRLVSSDLDAILQAALQGVGVAQLPEILVREALQQGRMVELFDAHRPKCGILHAVFVSRRGLLPAVRGLLDAFESSFTELTHNPESLYCSLHRTNSRIQGD | not soluble
5 | MGSDKIHHHHHHMFDTLASLGRDLQARETLNACLDRVFRDVCAQGFQSLVYDYAPVPLSMEGALITPSVFLQRNAPDDMHNVWCEHGYYQNDPVQQRATRRTTPFVWSYRTEGRTEGRTEGVEYVGDQHRQVTRYLCDSDMGTGVTVPLHLPGGAFATFSAAVNATQAEAPRLAEAQLPPFLLLAHAFQARAQELLDPQERRCHHIALTRRERECLQYSAKGMTAKSIAATLNRSTATVNLHLNSAARKLGARNRVEAVVRGMHYRLLEL | not soluble
6 | MGSDKIHHHHHHMFEMGIQELVKTIDTNINHMISLSVLNLAQLGIKYGIFKAVASRPSYEELLSQIPVPNKPLLKKLIEHLKALGIIEETPSNLILNGFSYVLKFPKEDYMLLLSDWIPIWEEIYKMVDFALISYSHPYVLMDFDKDADFWDIRLSSSFNKTYRDAIINLGEIREDSYILDLGCGSVSPAYFGKFISEDGKYVGVDYSPGLLEIARERVERNGLPAELKEMDVSLIRTRSKYDVAIMSFLLEYVRDREEVLGKVLEALDSGGKLIIVEAFRDEFENIQAMEFFESLNRSFVGYPAKAEIKKAILREGFDVSFEDYGKSILVVRKL | not soluble
7 | MGSDKIHHHHHHMFKDYQPKKGFDEYFSSDDFLPRSSLEPLLTSLGEMGLHQLNISHEIARKLLLRHGATFRLNDSGSKGSERILPFDPLPRVIGSLEWLGLERGLIQRLEAIDLFLADVYGKQQIINDGIIPRDFIESSDGWRPQMKGFVLPLGKWCHVSGLDLIRDGNGEWLVLEDNLRCPSGVAYFLENRLVMKRIFPSLFNGRVVRPIEDYPSYLLKSLQELAVWTDTPKVVLLTPGVFNSAYFEHSYLAQQMGIQLVEGSDLVCQNQNVYLKTTSGIKKVDVIYRRIDDDYLDPKFFRKDSMLGVPGLIDVLKKGRVAIANAPGTGLADDKLIYTFVPEMIRYYLKEEPIINNVKTYVCARSSDLSFVLENLGKLVVKSVSEAGGYGMLIGPHSSQIDIDKFSAKIKANPRNYIAQPTLDLSTVPSLSDGEVYPCHVDLRPYVLRGKNTWVSPGGLTRVALKRDSLIVNSSQGGGCKDTWVVG | not soluble
8 | MGSDKIHHHHHHMFKKYDAYLVGYYGMQNSGDDALMYATAWAAKNILGCNNTKVGLYGDYARETQSDNQLPLKFTQQFPGQNRLLHYKTAIQSKRIIFGGGSVLHSESDINLKRQLMSLANQKKSLAVGIGIGPFNSVMAEKSCAKFLNECGYVGVRDNASLAIARNIAPHANVHKTFDLAPLLLCSKQYKPSNRERQGIALTLCSVAIDAMGNTDELEEEKRVEQFVQLITKIYARTGEPITLIEFNGHNVLGDWKINNNIITRLLDKYIPVSIKKYDPNPIALLNKLSGYKAIVSMRLHGSILGYLANTPVLSINYHSKCKGWCDEVGMPEDYKIDLFNLNIEKIVSQIALGVSTTFQQPTLSINNALKNSLSNWSTQNEQFKFYRNYSTV | not soluble
9 | MGSDKIHHHHHHMFKPMASVFTNHQIAGHYRAIERAQKCVVPFHFEIQGQEYPKPKPERNWLRRLSGTSSEKYAMVELTPTKVVLWSPEGRNLGEMPLSAVRRIQIGAIRCHVTEGLDPRHAFRATIFVLTDSGNYYFANSDMEVLPAICKFAHEHQVPVEDPLRLIPLLKVGWRVAAVTLHETYAQLVAHTGYPADKV | not soluble
10 | MGSDKIHHHHHHMFLVISVVGSSNIDIVLKVDHFTKPGETQKAIEMNVFPGGKGANQAVTVAKIGEKGCRFVTCIGNDDYSDLLIENYEKLGITGYIRVSLPTGRAFIEVDKTGQNRIIIFPGANAELKKELIDWNTLSESDILLLQNEIPFETTLECAKRFNGIVIFDPAPAQGINEEIFQYLDYLTPNEKEIEALSKDFFGEFLTVEKAAEKFLELGVKNVIVKLGDKGVLLVNKNEKKHFPTFKVKAVDTTAAGDVFNGAFAVALSEGKNPEEAVIFGTAAAAISVTRLGAQSSIPAREEVEAFLKNL | soluble
11 | MGSDKIHHHHHHMFQYRFKWSFSSDPNLSDRLFELIEVIFPGLNDLVERGRKLGASWESASTPFIRFHDDVAITHVGVLEIPMVIMGQRVTVGGIHGVATRPEFRRKGYYREVIEEVLEYCDQIYETLILTTPEPEYHLPFGFRVVEEYIFHLKCSSKGNVNGWRILDFSDNQDLALLHRLLETRAPVSHVVGVVNEKPVFFVNEGSRDLYYAEDLDLIACIKIENNRLHIFDLVATKICSLKEILGRTSEVIEEVKIYFSPDLLDVDNVQAFPYKLEDTVLMIRGQFAAVGEKFMLPRSARC | not soluble
12 | MGSDKIHHHHHHMFSAMLEVNPIPEQFDAYLGMAKMLRPELEKIEGFIDNERYESLTRPGWLLSLSNWRDEKSLIRWRTTTKHHKVQQAARDRIFADYRLRIGEVDTDTHLPIGEALHQQRLDVTEAGEGKAVTLLDADRSRYWLNGASAEAVAKSLGLDAQARGLLAWDVFKALLSPEEVIVVLTWRDEAAALAFGKNARLPGDVRLRSIRIVREYGMFDRREAPQYFEEVPRKA | not soluble
13 | MGSDKIHHHHHHMFSIKRVIYYQELIRVGSFTKAAKALNISQAFLSQEIARLEIETERKLINRTTRQFSLTPFGQIFADKIQGMIKEHYELEQFVSSYEESTDGALLVGVIPIFNRLAHYNMFNLFQKAYPNIDISFIDGVSTDLLERVRNGEIHLSFSTPFDEYLNDPLFHHTICQIDDIVAVMATSHPLADNKTLSLPQLVKEKLIVPQKGTGEHAAVSESFTRQGINPSYFRECSNMDIIMDLVMNLSGVVFLCSSVAKSLTAYDVAVIPLEEQLKRTFAISYLKRSVNIPMVRLFLDFLQDYSESVR | not soluble
14 | MGSDKIHHHHHHMFSQHSFDFLNSLAVNNDREWFKTNQQQYEDQVRTPALQFIEAMQGPILGLSPRFTAVAKKVGGSLMRPQRDSRFSKDKTPYKTNVGIQFKHFQAKDVHAPGFYVHIANDECFIAAGIWHPESKDLNAIRHCIDENPNAYQKALTQLSQAGFELTGDSLIRPPRGFDKHHPMIDELRRKDFIAIKPISSEQVCQADFIEFCTQEYQHTRALMAYLCFALDLDF | not soluble
15 | MGSDKIHHHHHHMFTLYERKNRQKSNVNIFVMNYVTNLTKENLAGERIGVFFGTFAPLHVGHQAEIYKAAALNDGVLVVTSGYTGDRGEQIGLPLRKRFRYLRQAFADEWQIKVDYLNEDGIPKMPDGWDVWLDKLLGIIKRNIVNKNAKITFYTGEPDYKKEIEKRLGDNPQFRVSLMDRTILNISATKIRKEPLKYWDYINRVFRRHFVQKVVVMGSSNSGKSTLIRRLARSANSPFSDDFAAIYQEESNVADSEMDIKDYSNIIQGQYQANSLEINSPANNGLAIFNGDAISLQAYSNLLLNQDERLQLKHLYNTIISAEEFDLILVIPPFSDPRRKVIRFTGAAIDPVAYYQELIRLIDFYGFSDKMVVLNAKNQTDDPAGYYARYLQALDAIEKYTSFDIEHHR | not soluble
16 | MGSDKIHHHHHHMFYQLYEMNHAMMAPWRTAADAMRLAFSNPMNPVSHTYFGRAAAAGLEVFERATRRYGKPEFGLPETEIDGQPVPVRERIVWREPFCNLIHFERSLPRDRAPDPKVLIVAPMSGHYATLLRGTVEALLPHSDVYITDWIDARMVPLSEGTFDLDDYIDYVIQMLHFLGPDAHVIGVCQPAVPVLAAVALMEAAEDPLAPSTMTLMGGPIDTRINPTAVNELAKERPIEWFRDNVVMPVPWPQPGFMRMVYPGFLQLSGFMSMNLDRHLIAHKEFFAHLVKNDGDAAEKHRDFYDEYLAVMDLTAEFYLQTVQVVFMQHALPKGEMIHRGKRVDPTAIRRVALLTVEGENDDISGLGQTKAAQTICTGIPDSMRQHYMQPDVGHYGVFNGSRFRREIAPRIVAFQRRHSRHAKPVKQLIKGGKSA | not soluble
17 | MGSDKIHHHHHHMGASFNQAGFVKRIFTSHGTTLFVDTSSGELRHGLMEYSPNNVLLTKDGKSAHIRFVDGPTDIVYFTEYSAISGSKRIDGIDALNLMPDNTLTIVDLPRNKFGLVQNGTFLSARSDGRITLSAPLCRGWENFHFRKDASEVSGVIVSHRIDGKIITFFIQDRTDIIQSILFGGDFYERDTLDLIRDRSTPGKVFVDIGANIGNHSIFMSKFCSPSEVIVFEPNPKAIEILKLNVLLNACANINTSYLGLALGSKAAQMRVFSPDPNNMGRAQMLDDDDGNVKCVAGDLLLQQKPVGLLKIDVEGSEFEVLRGMQGTIETWRPNILIEVWPQSQQDLFSWCDSFRYVVQETFPTDNNYFLAPIERQS | not soluble
18 | MGSDKIHHHHHHMGDLPGLVRLSIALRIQPNDGPVFYKVDGQRFGQNRTIKLLTGSSYKVEVKIKPSTLQVENISIGGVLVPLELKSKEPDGDRVVYTGTYDTEGVTPTKSGERQPIQITMPFTDIGTFETVWQVKFYNYHKRDHCQWGSPFSVIEYECKPNETRSLMWVNKESFL | not soluble
19 | MGSDKIHHHHHHMGFKEDFMGNAPGACPFLHLVERSTSDVLEQAEALPFWSQDYTQLSKGAFSGSVTSVSCDGLQIFTETMNQAVDQIASAPVDSYVMGLPTLVDGESTWGLLPITTNSLITLEKNAELYFKTSNISEITAAVIPAQRLETYAAEVEWIDLSKVMEGLKPVEMLHPDIAQQLLSALQGGIQYKADIADNIHAHQMWRNFEDDLLSTCLHTLLHVRGNIHPHFDQRLPRYLVNRVRDYTLSNSALPLTIGELCKSLRVSRRTLNHAFIRVLGITPVAYIRNLRLHRVRFEMQQSPHEVISIAHLATKWGFWHLSLFSRYYRELFGECPIDTLQRARLESKRP | not soluble
